Measurements taken from paper PMC4132743 (Nucleic Acids Research, 2014).

Target: T1, DnaT Y127A/W128A (Escherichia coli K12, UniProt P0A8J2 1-179, Y127A;W128A)
T1 sequence: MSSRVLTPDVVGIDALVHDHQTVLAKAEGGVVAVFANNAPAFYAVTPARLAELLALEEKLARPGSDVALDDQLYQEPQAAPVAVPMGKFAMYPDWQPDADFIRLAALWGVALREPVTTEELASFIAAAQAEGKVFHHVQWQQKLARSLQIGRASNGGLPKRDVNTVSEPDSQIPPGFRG
Test: fluorescence polarization; almost no detectable binding; Buffer A: 20 mM Tris-HCl pH 7.5, 40 mM NaCl, 5% v/v glycerol, 20 C; FPA 200 nM 5'-FAM DNA, Hill fit; EMSA 30 min at 20 C, gels in 0.5x TBE at 4 C
Details: protein: recombinant; tags: His-MBP removed by TEV; label: 5'-FAM

TTTTTTTTTTTTTTTTTTTTTTTTTTTTTT (ssDNA) [5F-dT30]
binding result: no binding
